# Results: patent publication US20230123178A1 (Hoffmann-La Roche, published 2023)
# B1: anti-PD1(0314) huIgG1 PGLALA (control M) (antibody, V domains shown)
# VH: EVQLLESGGGLVQPGGSLRLSCAASGFSFSSYTMSWVRQAPGKGLEWVATISGGGRDIYYPDSVKGRFTISRDNSKNTLYLQMNSLRAEDTAVYYCVLLTGRVYFALDSWGQGTLVTVSS
# VL: EIVLTQSPATLSLSPGERATLSCRASESVDTSDNSFIHWYQQKPGQSPRLLIYRSSTLESGIPARFSGSGSGTDFTLTISSLEPEDFAVYYCQQNYDVPWTFGQGTKVEIKR
# notes: monospecific IgG1 of clone 0314; also called PD1 targeted human IgG control M
# B2: PD1-0050 (antibody, V domains shown)
# VH: DVQLQESGPGLVKPSQSLSLTCTVTGYSITSDYAWNWIRQFPGNKLEWMGYITYTGRTSYNPSLKSRISITRDTSKNQFFLQLNSVTTEDTATYYCAREMDYYGSTLDYWGQGTTLTVSS
# VL: KIVLTQSPASLAVSLRQRATISCRASESVDRYGNSFIHWYQQKPGQPPKVLIYRASNLESGFPARFSGSGSRTDFTLTIDPVEADDAATYYCQQNNEDPYTFGSGTKLEIK
# B3: PD1-0069 (antibody, V domains shown)
# VH: QVQLQQSGPELVRPGVSVKISCKGSGYTFTDYAMHWVKQSHARTLEWIGVISTYSGDTNYNQKFKDKATMTVDKSSSTAYLELARMTSEDSAIYYCARLGITTGFAYWGQGTLVTVSA
# VL: DIVLTQSPASLAVSLGQRATISCRASKGVSTSSYSFMHWYQQKPRQPPKLLIKYASYLESGVPARFSGSGSGTDFTLNIHPVEEEDAATYYCHHSREFPWTFGGGTKLEIK
# B4: PD1-0073 (antibody, V domains shown)
# VH: EVKLVESGGGLVKPGGSLKLSCAASGFTFSNYGMSWIRQTPEKGLEWVATISGGGRDTYYPDSVKGRFTISRDNVKNNLYLQMSSLRSEDTAFYYCASYYYGIDYWGQGTSVTVSS
# VL: DIVMTQPHKFMSTSVGDRVRITCKASQDVTTAVAWYQQKPGQSPKLLIYWASTRHTGVPDRFTGSGSGTEFTLTISSVQAEDLALYYCQQHYSIPWTFGGGTKLEIK
# B5: PD1-0078 (antibody, V domains shown)
# VH: QVQLQQPGAELVKPGASVKMSCKASGYTFTSTWMHWVKQRPGQGLEWIGAIDPSDSYTTYNQKFKGKATLTVDTSSTTAYMQLSSLTSEDSAVYYCTRSPFDYWGQGTTLTVSS
# VL: DIVMTQSHKFMSTSVGDRVSITCKASQDVSTAVAWYQQKPGQSPKLLIYSASYRYTGVPDRFTGSGSGTDFTFAISSVQAEDLAVYYCQQHYSHPFTFGSGTKLEIK
# Key:
# [1] = molecular target: T1, full-length human PD1 on cells (human, UniProt Q15116 25-288); assay: flow cytometry on CHO-K1-huPD1 clone 5 cells
# T1 construct: also PD1 on primary human PBMC subsets and on Jurkat reporter cells; also called CHO-PD1; CHO-k1-huPD1 clone 5
# T1 sequence (Q15116 25-288 limits assumed): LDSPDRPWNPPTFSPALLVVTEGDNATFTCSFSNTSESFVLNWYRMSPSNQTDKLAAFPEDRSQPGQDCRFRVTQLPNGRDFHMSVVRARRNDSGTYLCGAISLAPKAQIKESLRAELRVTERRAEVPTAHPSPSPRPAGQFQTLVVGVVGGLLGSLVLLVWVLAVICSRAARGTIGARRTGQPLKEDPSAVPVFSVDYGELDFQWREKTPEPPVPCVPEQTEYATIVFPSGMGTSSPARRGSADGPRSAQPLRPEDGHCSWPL
# Source text: For binding assays on PD1 and 4-1BB expressing tumor cells two genetically modified tumor cells were used. The generation of human expressing HeLa-hu4-1BB-NFκB-luc clone 26 cells will be described in Example 5.3.1. For human PD1 expressing tumor cell lines, CHO-k1 cells were transfected with human PD1 as following: parental adherent CHO-K1 cell line (ATCC CCL-61) was stably transfected with plasmid 15311_hPD1-fl_pUC_Neo coding for full-length human PD1 and selection with G418 (Neomycin resistance marker on plasmid).
# 0.1×10⁶ tumor cells resuspended in DPBS (Gibco by Life Technologies, Cat. No. 14190 326) were added to each well of a round-bottom suspension cell 96-well plates (greiner bio-one, cellstar, Cat. No. 650185). Cells were washed once with 200 μL DPBS. Cells were resuspended in 100 μL/well of 4° C. cold DPBS buffer containing 1:5000 diluted Fixable Viability Dye eFluor 660 (eBioscience, Cat. No. 65-0864-18) and plates were incubated for 30 minutes at 4° C. […] Data was analyzed using FlowJo V10 (FlowJo, LLC) and GraphPad Prism 6.04 (GraphPad Software, Inc).
# (§1) Gates were set on living tumor cells and geo means of fluorescence intensity of PE-conjugated AffiniPure anti-human IgG IgG Fcγ-fragment-specific goat F(ab′)2 fragment were blotted against the titrated concentration of PD1-targeted 4-1BB split trimeric ligand Fc fusion antigen binding molecules or their controls.
# [2] = molecular target: T1, full-length human PD1 on cells; assay: flow cytometry, activated human PBMCs, CD19 cells
# Procedure: (§2) Cells were further incubated for 2 days at 37° C. and 5% CO₂
# (§3) For the binding assay 0.1×10⁶ fresh or activated PBMCs were added to each well of a round-bottom suspension cell 96-well plates (greiner bio-one, cellstar, Cat. No. 650185). Plates were centrifuged 5 minutes with 350×g and at 4° C. and supernatant were discarded. Afterwards cells were stained in 100 μL/well DPBS containing 1:5000 diluted fixable viability dye eF660 (eBioscience, Cat.-No. 65-0864-18) for 30 minutes at 4° C. in the dark. Cells were washed once with 200 μL ice cold cold DPBS buffer. Next, 50 μL/well of 4° C. cold FACS buffer (DPBS supplied with 2% FBS, 5 mM EDTA pH8 (Amresco, Cat. No. E177) and 7.5 mM Sodium azide (Sigma-Aldrich, Cat.-No. S2002)) containing titrated concentrations of construct 7.1, construct 7.3, construct 7.5 and construct 7.6 and as controls control B, control C, control D, control M and control F were added and cells were incubated for 60 minutes at 4° C., washed three times with 200 μL/well 4° C. FACS buffer. […] Data was analyzed using FlowJo V10 (FlowJo, LLC) and GraphPad Prism 6.04 (GraphPad Software, Inc)
# [3] = molecular target: T1, full-length human PD1 on cells; assay: flow cytometry, activated human PBMCs, γδ T cells
# Procedure: as §2, §3
# [4] = molecular target: T1, full-length human PD1 on cells; assay: flow cytometry, activated human PBMCs, CD4 T cells
# Procedure: as §2, §3
# [5] = molecular target: T1, full-length human PD1 on cells; assay: flow cytometry, activated human PBMCs, CD8 T cells
# Procedure: as §2, §3
# [6] = molecular target: T1, full-length human PD1 on cells; assay: flow cytometry, freshly isolated resting human PBMCs (table title), γδ T cells
# Procedure: as §3
# [7] = molecular target: T1, full-length human PD1 on cells; assay: flow cytometry, freshly isolated resting human PBMCs (table title), CD4 T cells
# Procedure: as §3
# human 4-1BB on cells = molecular target: T2, human 4-1BB on cells (human, UniProt Q07011 24-255); assay: flow cytometry on HeLa-huCD137-NFkB-luc clone 26 cells; PE-conjugated anti-human IgG secondary; geo mean
# T2 construct: whole, on cells; also called HeLa-hu4-1BB-NFkB-luc clone 26; HeLa-huCD137-NFkB-luc clone 26 cells
# T2 sequence (Q07011 24-255): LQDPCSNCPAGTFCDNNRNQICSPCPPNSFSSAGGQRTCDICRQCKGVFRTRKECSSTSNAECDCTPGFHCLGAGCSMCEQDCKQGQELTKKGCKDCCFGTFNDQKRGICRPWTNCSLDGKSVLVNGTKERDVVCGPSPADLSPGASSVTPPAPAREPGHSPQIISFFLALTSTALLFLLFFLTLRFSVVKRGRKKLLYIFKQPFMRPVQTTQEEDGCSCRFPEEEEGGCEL
# Procedure: Cells were washed once with 200 μL DPBS. Cells were resuspended in 100 μL/well of 4° C. cold DPBS buffer containing 1:5000 diluted Fixable Viability Dye eFluor 660 (eBioscience, Cat. No. 65-0864-18) and plates were incubated for 30 minutes at 4° C. Cells were washed once with 200 μL/well 4° C. cold DPBS buffer and resuspended in 50 μL/well of 4° C. cold FACS buffer (DPBS supplied with 2% FBS, 5 mM EDTA pH8 (Amresco, Cat. No. E177) and 7.5 mM Sodium azide (Sigma-Aldrich S2002)) containing PD1-targeted 4-1BB split trimeric ligand Fc fusion antigen binding molecules at a series of concentrations, followed by incubation for 1 hour at 4° C. After extensive washing, cells were further stained with 50 μL/well of 4° C. cold FACS buffer containing 5 μg/mL PE-conjugated AffiniPure anti-human IgG F(ab′)2-fragment-specific goat F(ab′)2 fragment (Jackson ImmunoResearch, Cat. No. 109 116 098) for 30 minutes at 4° C. Cells were washed twice with 200 μL/well 4° C. […] Data was analyzed using FlowJo V10 (FlowJo, LLC) and GraphPad Prism 6.04 (GraphPad Software, Inc).
# as §1
# [8] = molecular target: T1, full-length human PD1 on cells; assay: cell-based or functional assay
Binder,EC50 [1] [nM],EC50 [2] [nM],EC50 [3] [nM],EC50 [4] [nM],EC50 [5] [nM],EC50 [6] [nM],EC50 [7] [nM],binding result (human 4-1BB on cells),"Percentage of IFN gamma secretion in MLR against rec hu IL-2 (=100%), dilution 1:12 [8] [%]","Percentage of IFN gamma secretion in MLR against rec hu IL-2 (=100%), dilution 1:120 [8] [%]","Percentage of IFN gamma secretion in MLR against rec hu IL-2 (=100%), dilution 1:1200 [8] [%]"
B1,1.59,0.33,0.71,0.33,0.3,0.03,0.03,no binding (tested: ~300 nM),–,–,–
B2,–,–,–,–,–,–,–,–,136,96,33
B3,–,–,–,–,–,–,–,–,76,71,55
B4,–,–,–,–,–,–,–,–,103,63,38
B5,–,–,–,–,–,–,–,–,99,72,21
